Where two headings read alike, the source gives them in different places.
Assays:
Experiment in all cases: SDS-PAGE
recombinant NaK channel [1] = target: recombinant NaK channel
recombinant NaK channel [2] = target: recombinant NaK channel; remark: listed apart in the source
[3] = target: semisynthetic NaK channel (residues 19-110)

Row | stoichiometry N (recombinant NaK channel [1]) | stoichiometry N (recombinant NaK channel [2]) | Substance | stoichiometry N [3]
1 | 4 | 4 | recombinant NaK channel (natural protein) | –
2 | – | – | semisynthetic NaK channel (residues 19-110) (natural protein) | 4

Reference: article PMC2889250
